Target: the molecule itself
Assay: cryo-EM structure; single-particle cryo-EM of purified protein in digitonin micelles; pH 8 or pH 6, NaCl or KCl; WT also with 5 mM cAMP at pH 6; C2 symmetry imposed

B1: sp9C1 R399A mutant, tag cleaved (cryo-EM sample) (natural protein, Strongylocentrotus purpuratus, UniProt A3RL54 30-1325, looked up)
chain: SSGGSGHTPTTQATHADDHDLTTHNGTEEHDDGHDDGHDDLHAHAPKVIVFISGSCLFGAISRSLFKKLPIPYTVVLLILGAILGVVASNVPLVEEHTRDVAHMDPHVLLQIFLPVLIFESAFAMDVHTFMRSFSQVCILALFGLVVASVLTAVLAMNLFNYNWNFSEAMMFGAIMSATDPVAVVALLKDLGASKQLGTIIEGESLLNDGCAIVIFNVFMKMVFFPQLTSTVGQNVLYFLQVAVAGPLWGYAVAKVTVFFLSHIFNDALVEITITLAATYLTYYIGDIWLEVSGVLAVVVLGLIVNAEKTSISPEVEVFLHRFWEMLAYLANTLIFMMVGVVVTQKALVAVDKMDWFYLIILYLAITIIAGMVISLFSPILSRIGYGLTWRNAVIMTWGGLRGAVGLALALVVENLAGNDVIGSKFLFHTAGIVVLTLVINATTIQTLLRILGMSDISIPKRLAMAGAVRRIHEGQNRTLNMLKSDRFLADADWDIATAACEISDPYSALSDDENAPADELTLGERKSVCPGCKAMVPNEPSPREFADMMEEARLRMLKAEKISYWKQFEHGMLAREALRLLVQHAEVAADEKDQFILVDDLKKSWQIKGIYPWLKRKLEDLISEKKIAAIPMPKYKLGKLMYKICHHMAFEVTINIAIVLNIVPIIMEFVVQDKMASVSTMAAPGSTVSSEPSSLQKIEDALRISNYVFFVIYAIEAIVKILGLGRHYIVSHWNKFDAFILVVALVDIIIAETLLKGSITINLSSIKVVKLFRLLRGLRMLRLTKALIPKLILVVNGKINNQLSLGYDVGKGYIIGEEEVGKIIDRMVDNKKILRELKHISETGRLQVVKELGLLQREHPGIAVSVKTRQAIRTILNHSRETIHELQGAGLLDEMEAHKLELTVEIKMKRLMNAPSSIPPPPPENLLKNVSWLAGDMKLIDFIKARASLLHFDYGEVIVREGDESDGLFLIVSGLVKLYGKSAFLDHDNPPVTAGSEENEVFEDYLTVGNVIGEMGVLTKKPRNATVTCETTVQVYFITAEDMNIAIDTFTLYPSLEYRLWRVVAIRIATPLIMEQMAFQGWTQEKVKLHLERGYLVDLAESHFQFNIDATLEDVILINGTAYNAHTREEIRSPCLISRTVHKLTFQYTATEEPRLFVVRNAEYNGPILDGRLDVDSKRSLISITEISSNMCLKHAAELRQKNSKVMLSRKSSGAAAKEEEDCIPNTSDVEQAAGVSPSVPTKTTPKPKSFLPSLGLSMSKERVNGEAVEESPVKTKQGEETPETEEGAAPRVNV
notes: SLC9C1, Strongylocentrotus purpuratus, full length with R399A; made in the background of the parent construct; source: HEK293F, transiently transfected; purified in digitonin (anti-GFP-nanobody resin, PreScission cleavage, gel filtration); not shown: mEGFP, C-terminal, cleaved; Twinstrep, C-terminal, cleaved
binding result: binds
